Consider five molecules from patent EP4674438A1, “ANTIBODY-DRUG CONJUGATE CONTAINING ANTI-CD138 ANTIBODY” (priority 2023, dated 2024).

The target in assay [1] is T1, human CD138 protein (human, UniProt P18827 23-310).
T1 sequence: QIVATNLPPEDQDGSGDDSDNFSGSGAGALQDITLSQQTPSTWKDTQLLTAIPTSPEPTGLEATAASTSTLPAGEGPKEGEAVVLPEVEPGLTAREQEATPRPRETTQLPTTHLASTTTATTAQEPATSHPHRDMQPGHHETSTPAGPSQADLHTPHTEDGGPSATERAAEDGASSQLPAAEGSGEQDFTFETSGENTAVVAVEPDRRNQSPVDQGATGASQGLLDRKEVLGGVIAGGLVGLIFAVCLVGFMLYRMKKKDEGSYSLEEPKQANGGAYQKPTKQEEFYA
In words: cell-based or functional assay.

For assay [2], the target named is T1, human CD138 protein. The assay can be described thus: flow cytometry on AsPC-1 cells (legend of Figure 1).
For assay [3], the target named is T1, human CD138 protein. The assay can be described thus: flow cytometry on AsPC-1 cells, 0.001 to 100 ug/ml, anti-human IgG Fc-APC. For orientation: In flow cytometry, cells or beads pass a laser one at a time.

B1: Antibody-drug conjugate 10 (ADC10) (antibody, human IgG1, kappa, L234A L235A, V domains shown)
VH: QVQLVQSGAEVKKPGSSVKVSCKASGYTFSNYWIEWVRQAPGQGLEWIGEILPGTGRTIYNEKFKGRATFTADESTSTAYMELSSLRSEDTAVYYCARRDYYGNFYYAMDYWGQGTLVTVSS
VL: DIQMTQSPSSLSASVGDRVTITCSASQGINNYLNWYQQKPGKAPKLLIYYTSTLQSGVPSRFSGSGSGTDYTLTISSLQPEDFATYYCQQYSKLPRTFGGGTKVEIKR
modifications: MC-VC-PAB-MMAE on cysteine sulfhydryls after TCEP reduction of hinge disulfide bonds; positions not given; DAR 7.8
B1: the “IC50 (ng/ml), cytotoxicity, Capan-1 (CD138-positive), CellTiter-Glo 2.0” value (“IC50 (ng/ml), cytotoxicity” for short) with human CD138 protein [1] is 29 ng/mL.

B2: Antibody 5 (antibody, human IgG1, kappa, L234A L235A, V domains shown)
VH: B1 VH
VL: B1 VL
notes: Humanized; also called anti-CD138 antibody
Regarding B2, the binding result in the assay with human CD138 protein [2] is on record as “binds”.

B3: Antibody-drug conjugate 3 (ADC3) (antibody, V domains shown)
VH: QVQLQQSGSELMMPGASVKISCKATGYTFSNYWIEWVKQRPGHGLEWIGEILPGTGRTIYNEKFKGKATFTADISSNTVQMQLSSLTSEDSAVYYCARRDYYGNFYYAMDYWGQGTLVTVSS
VL: DIQMTQSTSSLSASLGDRVTISCSASQGINNYLNWYQQKPDGTVELLIYYTSTLQSGVPSRFSGSGSGTDYSLTISNLEPEDIGTYYCQQYSKLPRTFGGGTKLEIKR
modifications: MC-VC-PAB-MMAE on cysteine sulfhydryls after TCEP reduction of hinge disulfide bonds; positions not given; DAR 7.1
With B3, the “IC50 (ng/ml), cytotoxicity” value in the assay with human CD138 protein [1] worked out at 13 ng/mL.

B4: Antibody 1 (antibody, V domains shown)
VH: B3 VH
VL: B3 VL
notes: expressed in HEK293 cells; Same light chain as Antibody 2 (nBT062); also called anti-CD138 antibody
Take B4: in the assay with human CD138 protein [3], the binding result is recorded as “binds”.

B5: Antibody-drug conjugate 4 (ADC4) (antibody, human IgG1, kappa, V domains shown)
VH: B3 VH
VL: B3 VL
modifications: MC-VC-PAB-MMAF on cysteine sulfhydryls after TCEP reduction of hinge disulfide bonds; positions not given; DAR 2.2
Turning to B5, in the assay with human CD138 protein [1], the “IC50 (ng/ml), cytotoxicity” value was determined as 165 ng/mL.
